Data published in IntAct's records for PubMed 21505799.

B1: E3 ubiquitin-protein ligase NHLRC1 (Homo sapiens), Q6VVB1 (parent)
chain: MAAEASESGPALHELMREAEISLLECKVCFEKFGHRQQRRPRNLSCGHVVCLACVAALAHPRTLALECPFCRRACRGCDTSDCLPVLHLIELLGSALRQSPAAHRAAPSAPGALTCHHTFGGWGTLVNPTGLALCPKTGRVVVVHDGRRRVKIFDSGGGCAHQFGEKGDAAQDIRYPVDVTITNDCHVVVTDAGDRSIKVFDFFGQIKLVIGGQFSLPWGVETTPQNGIVVTDAEAGSLHLLDVDFAEGVLRRTERLQAHLCNPRGVAVSWLTGAIAVLEHPLALGTGVCSTRVKVFSSSMQLVGQVDTFGLSLYFPSKITASAVTFDHQGNVIVADTSGPAILCLGKPEEFPVPKPMVTHGLSHPVALTFTKENSLLVLDTASHSIKVYKVDWG
partner: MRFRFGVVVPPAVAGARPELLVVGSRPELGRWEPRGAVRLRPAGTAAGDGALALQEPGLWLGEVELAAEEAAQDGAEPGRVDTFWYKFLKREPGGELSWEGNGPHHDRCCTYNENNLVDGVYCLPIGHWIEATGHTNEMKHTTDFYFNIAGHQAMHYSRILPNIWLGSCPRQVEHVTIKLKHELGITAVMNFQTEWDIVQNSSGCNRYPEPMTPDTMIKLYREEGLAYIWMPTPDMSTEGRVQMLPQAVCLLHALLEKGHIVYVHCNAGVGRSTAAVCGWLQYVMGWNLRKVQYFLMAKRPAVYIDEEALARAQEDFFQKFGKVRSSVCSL

Variants of: B1
Settings: with epm2a_human EPM2A

Variant	effect of a mutation on the interaction
MAAEASESGPALHELMREAEISLLECKVCFEKFGHRQQRRPRNLSCGHVVCLACVAALAHPRTLALECAFCRRACRGCDTSDCLPVLHLIELLGSALRQSPAAHRAAPSAPGALTCHHTFGGWGTLVNPTGLALCPKTGRVVVVHDGRRRVKIFDSGGGCAHQFGEKGDAAQDIRYPVDVTITNDCHVVVTDAGDRSIKVFDFFGQIKLVIGGQFSLPWGVETTPQNGIVVTDAEAGSLHLLDVDFAEGVLRRTERLQAHLCNPRGVAVSWLTGAIAVLEHPLALGTGVCSTRVKVFSSSMQLVGQVDTFGLSLYFPSKITASAVTFDHQGNVIVADTSGPAILCLGKPEEFPVPKPMVTHGLSHPVALTFTKENSLLVLDTASHSIKVYKVDWG [P69A]	decreasing interaction
MAAEASESGPALHELMREAEISLLECKVCFEKFGHRQQRRPRNLSYGHVVCLACVAALAHPRTLALECPFCRRACRGCDTSDCLPVLHLIELLGSALRQSPAAHRAAPSAPGALTCHHTFGGWGTLVNPTGLALCPKTGRVVVVHDGRRRVKIFDSGGGCAHQFGEKGDAAQDIRYPVDVTITNDCHVVVTDAGDRSIKVFDFFGQIKLVIGGQFSLPWGVETTPQNGIVVTDAEAGSLHLLDVDFAEGVLRRTERLQAHLCNPRGVAVSWLTGAIAVLEHPLALGTGVCSTRVKVFSSSMQLVGQVDTFGLSLYFPSKITASAVTFDHQGNVIVADTSGPAILCLGKPEEFPVPKPMVTHGLSHPVALTFTKENSLLVLDTASHSIKVYKVDWG [C46Y]	disrupting interaction
MAAEASESGPALHELMREAEISLLECKVCFEKFGHRQQRRPRNLSCGHVVCLACVAALAHPRTLALECPFCRRACRGCDTSDCLPVLHLIELLGSALRQSPAAHRAAPSAPGALTCHHTFGGWGTLVNPTGLALCPKTGRVVVVHDGRRRVKIFDSGGGCAHQFGEKGDAAQDIRYPVDVTITNDCHVVVTDAGDRSIKVFDFFGQIKLVIGGQFSLPWGVETTPQNGIVVTDAEAGSLHLLDVDFAEGVLRRTERLQAHPCNPRGVAVSWLTGAIAVLEHPLALGTGVCSTRVKVFSSSMQLVGQVDTFGLSLYFPSKITASAVTFDHQGNVIVADTSGPAILCLGKPEEFPVPKPMVTHGLSHPVALTFTKENSLLVLDTASHSIKVYKVDWG [L261P]	disrupting interaction
MAAEASESGPALHELMREAEISLLECKVCFEKFGHRQQRRPRNLSCGHVVCLACVAALAHPRTLALECPFCRRACRGCDTSDCLPVLHLIELLGSALRQSPAAHRAAPSAPGALTCHHTFGGWGTLVNPTGLALCPKTGRVVVVHNGRRRVKIFDSGGGCAHQFGEKGDAAQDIRYPVDVTITNDCHVVVTDAGDRSIKVFDFFGQIKLVIGGQFSLPWGVETTPQNGIVVTDAEAGSLHLLDVDFAEGVLRRTERLQAHLCNPRGVAVSWLTGAIAVLEHPLALGTGVCSTRVKVFSSSMQLVGQVDTFGLSLYFPSKITASAVTFDHQGNVIVADTSGPAILCLGKPEEFPVPKPMVTHGLSHPVALTFTKENSLLVLDTASHSIKVYKVDWG [D146N]	decreasing interaction
